According to publication PMC10180154, “Screening and Identification of ssDNA Aptamers for Low-Density Lipoprotein (LDL) Receptor-Related Protein 6”:

B1: MutLRP6-A2 (ssDNA)
DNA: AGCAGCACTTAGGTCAGATGGCCACATTAGTCTCACCACTACCTTTTTTCCTACCGCCGCCCTATGCGTGCTACCGTGAA
B2: MutLRP6-A3 (ssDNA)
DNA: AGCAGCACAGAGGTTATTTGGCAGCTAAGCAGGCGGCTCACAAAACCATTCGCATGCGGCCCTATGCGTGCTTTTGTGAA

Target: LRP6 (recombinant human LRP-6, Fc chimera) (Homo sapiens, UniProt O75581 20-1370)
Assay: SPR; CE-LIF: incubation pH 8.0, 0.155% glutathione, 0.395% Tris-HCl; running buffer 50 mM borate pH 7.6, 20 kV, 25 C (CE-SELEX conditions). SPR: PBST pH 7.4, 0.05% Tween-20, 25 C, protein amine-coupled on CM5. AuNP: room temperature, then 0.9 M NaCl.
Conditions: protein: commercial; tags: Fc chimera; chain copies: 2

LRP6 (recombinant human LRP-6, Fc chimera), sequence (O75581 20-1370, change not shown): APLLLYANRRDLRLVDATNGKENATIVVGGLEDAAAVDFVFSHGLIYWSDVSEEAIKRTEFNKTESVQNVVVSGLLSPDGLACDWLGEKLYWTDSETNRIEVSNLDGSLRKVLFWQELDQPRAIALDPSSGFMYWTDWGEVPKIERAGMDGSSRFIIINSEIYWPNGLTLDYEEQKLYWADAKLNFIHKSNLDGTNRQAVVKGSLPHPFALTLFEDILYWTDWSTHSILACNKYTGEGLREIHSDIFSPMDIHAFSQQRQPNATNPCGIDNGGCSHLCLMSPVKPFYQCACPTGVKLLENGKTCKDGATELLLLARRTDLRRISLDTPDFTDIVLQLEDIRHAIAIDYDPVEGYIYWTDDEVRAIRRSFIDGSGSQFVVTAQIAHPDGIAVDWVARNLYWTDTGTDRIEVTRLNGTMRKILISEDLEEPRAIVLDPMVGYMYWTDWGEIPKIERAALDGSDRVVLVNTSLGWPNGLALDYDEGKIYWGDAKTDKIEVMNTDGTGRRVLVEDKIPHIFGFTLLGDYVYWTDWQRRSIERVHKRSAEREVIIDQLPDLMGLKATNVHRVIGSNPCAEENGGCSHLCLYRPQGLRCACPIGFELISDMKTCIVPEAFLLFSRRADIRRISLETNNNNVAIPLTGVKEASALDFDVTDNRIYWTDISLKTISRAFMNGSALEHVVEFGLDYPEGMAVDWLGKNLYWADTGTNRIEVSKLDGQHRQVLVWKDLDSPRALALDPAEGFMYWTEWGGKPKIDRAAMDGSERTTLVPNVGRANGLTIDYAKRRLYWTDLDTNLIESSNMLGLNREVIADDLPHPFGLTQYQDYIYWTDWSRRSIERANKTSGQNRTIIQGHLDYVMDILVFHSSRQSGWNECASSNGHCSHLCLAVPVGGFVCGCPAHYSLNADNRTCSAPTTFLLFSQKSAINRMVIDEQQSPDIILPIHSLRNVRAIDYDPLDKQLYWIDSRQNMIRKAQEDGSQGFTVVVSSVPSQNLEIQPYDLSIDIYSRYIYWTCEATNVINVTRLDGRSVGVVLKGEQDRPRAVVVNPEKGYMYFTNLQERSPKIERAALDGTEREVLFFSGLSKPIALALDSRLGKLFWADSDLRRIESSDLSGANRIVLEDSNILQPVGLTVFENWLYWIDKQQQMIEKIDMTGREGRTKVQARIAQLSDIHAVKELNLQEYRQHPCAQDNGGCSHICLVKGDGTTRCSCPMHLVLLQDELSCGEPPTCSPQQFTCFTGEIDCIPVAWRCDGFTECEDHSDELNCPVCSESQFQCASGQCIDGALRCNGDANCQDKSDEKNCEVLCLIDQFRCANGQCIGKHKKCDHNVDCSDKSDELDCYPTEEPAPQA

Binder	binding result	Kd [nM]
B1	no binding	
B2		2680
